The values that follow come from patent US20140329752A1 (published 2014).

Ends that are not written are not given here.

B1: AC187 (peptide)
peptide: VLGKLSQELHKLQTYPRTNTGSNTY
modifications: not fully specified
B2: modified calcitonin gene-related peptide antagonist of SEQ ID NO: 4 (peptide)
peptide: H-ACNTAACVLGRLSQELHRLQTYPRTNVGSKAF-NH2
modifications: not fully specified (bridges); printed as NH2-Ala-Cys-Asn-Thr-Ala-Ala-Cys-Val-Leu-Gly-Arg-Leu-Ser-Gln-Glu-Leu-His-Arg-Leu-Gln-Thr-Tyr-Pro-Arg-Thr-Asn-Val-Gly-Ser-Lys-Ala-Phe-NH2; cysteine pairing not given here
B3: modified calcitonin gene-related peptide antagonist of SEQ ID NO: 3 (peptide)
peptide: H-ACDTAVCVLGRLSQELHRLQTYPRTNVGSKAF-NH2
modifications: not fully specified (bridges); printed as NH2-Ala-Cys-Asp-Thr-Ala-Val-Cys-Val-Leu-Gly-Arg-Leu-Ser-Gln-Glu-Leu-His-Arg-Leu-Gln-Thr-Tyr-Pro-Arg-Thr-Asn-Val-Gly-Ser-Lys-Ala-Phe-NH2; cysteine pairing not given here
B4: modified calcitonin gene-related peptide antagonist of SEQ ID NO: 1 (peptide)
peptide: H-ACDTAACVLGRLSQELHRLQTYPRTNVGSKAF-NH2
modifications: not fully specified (bridges); printed as NH2-Ala-Cys-Asp-Thr-Ala-Ala-Cys-Val-Leu-Gly-Arg-Leu-Ser-Gln-Glu-Leu-His-Arg-Leu-Gln-Thr-Tyr-Pro-Arg-Thr-Asn-Val-Gly-Ser-Lys-Ala-Phe-NH2; cysteine pairing not given here
B5: modified calcitonin gene-related peptide antagonist of SEQ ID NO: 13 (peptide)
peptide: H-ACNLSACVLGRLSQELHRLQTYPTNTGSGTP-NH2
modifications: not fully specified (bridges); printed as NH2-Ala-Cys-Asn-Leu-Ser-Ala-Cys-Val-Leu-Gly-Arg-Leu-Ser-Gln-Glu-Leu-His-Arg-Leu-Gln-Thr-Tyr-Pro-Thr-Asn-Thr-Gly-Ser-Gly-Thr-Pro-NH2; cysteine pairing not given here
B6: modified calcitonin gene-related peptide antagonist of SEQ ID NO: 8 (peptide)
peptide: H-CSNTAACVLGRLSQELHRLQTYPRTNVGSKAF-NH2
modifications: not fully specified (bridges); printed as NH2-Cys-Ser-Asn-Thr-Ala-Ala-Cys-Val-Leu-Gly-Arg-Leu-Ser-Gln-Glu-Leu-His-Arg-Leu-Gln-Thr-Tyr-Pro-Arg-Thr-Asn-Val-Gly-Ser-Lys-Ala-Phe-NH2; cysteine pairing not given here
B7: modified calcitonin gene-related peptide antagonist of SEQ ID NO: 5 (peptide)
peptide: H-ACVLGACVLGRLSQELHRLQTYPRTNVGSKAF-NH2
modifications: not fully specified (bridges); printed as NH2-Ala-Cys-Val-Leu-Gly-Ala-Cys-Val-Leu-Gly-Arg-Leu-Ser-Gln-Glu-Leu-His-Arg-Leu-Gln-Thr-Tyr-Pro-Arg-Thr-Asn-Val-Gly-Ser-Lys-Ala-Phe-NH2; cysteine pairing not given here
B8: modified calcitonin gene-related peptide antagonist of SEQ ID NO: 7 (peptide)
peptide: H-ACNLSACVLGRLSQELHRLQTYPRTNVGSKAF-NH2
modifications: not fully specified (bridges); printed as NH2-Ala-Cys-Asn-Leu-Ser-Ala-Cys-Val-Leu-Gly-Arg-Leu-Ser-Gln-Glu-Leu-His-Arg-Leu-Gln-Thr-Tyr-Pro-Arg-Thr-Asn-Val-Gly-Ser-Lys-Ala-Phe-NH2; cysteine pairing not given here
B9: modified calcitonin gene-related peptide antagonist of SEQ ID NO: 2 (peptide)
peptide: H-ACDTASCVLGRLSQELHRLQTYPRTNVGSKAF-NH2
modifications: not fully specified (bridges); printed as NH2-Ala-Cys-Asp-Thr-Ala-Ser-Cys-Val-Leu-Gly-Arg-Leu-Ser-Gln-Glu-Leu-His-Arg-Leu-Gln-Thr-Tyr-Pro-Arg-Thr-Asn-Val-Gly-Ser-Lys-Ala-Phe-NH2; cysteine pairing not given here
B10: modified calcitonin gene-related peptide antagonist of SEQ ID NO: 11 (peptide)
peptide: H-ACNLSVCVLGRLSQELHRLQTYPRTNVGSKAF-NH2
modifications: not fully specified (bridges); printed as NH2-Ala-Cys-Asn-Leu-Ser-Val-Cys-Val-Leu-Gly-Arg-Leu-Ser-Gln-Glu-Leu-His-Arg-Leu-Gln-Thr-Tyr-Pro-Arg-Thr-Asn-Val-Gly-Ser-Lys-Ala-Phe-NH2; cysteine pairing not given here
B11: modified calcitonin gene-related peptide antagonist of SEQ ID NO: 10 (peptide)
peptide: H-ACDTAICVLGRLSQELHRLQTYPRTNVGSKAF-NH2
modifications: not fully specified (bridges); printed as NH2-Ala-Cys-Asp-Thr-Ala-Ile-Cys-Val-Leu-Gly-Arg-Leu-Ser-Gln-Glu-Leu-His-Arg-Leu-Gln-Thr-Tyr-Pro-Arg-Thr-Asn-Val-Gly-Ser-Lys-Ala-Phe-NH2; cysteine pairing not given here
B12: modified calcitonin gene-related peptide antagonist of SEQ ID NO: 12 (peptide)
peptide: H-CSNTAVCVLGRLSQELHRLQTYPRTNVGSKAF-NH2
modifications: not fully specified (bridges); printed as NH2-Cys-Ser-Asn-Thr-Ala-Val-Cys-Val-Leu-Gly-Arg-Leu-Ser-Gln-Glu-Leu-His-Arg-Leu-Gln-Thr-Tyr-Pro-Arg-Thr-Asn-Val-Gly-Ser-Lys-Ala-Phe-NH2; cysteine pairing not given here
B13: modified calcitonin gene-related peptide antagonist of SEQ ID NO: 14 (peptide)
peptide: ACVLGACVLGRLSQELHRLQTYPVDPSSPHSY-NH2
modifications: not fully specified (bridges); printed as Ala-Cys-Val-Leu-Gly-Ala-Cys-Val-Leu-Gly-Arg-Leu-Ser-Gln-Glu-Leu-His-Arg-Leu-Gln-Thr-Tyr-Pro-Val-Asp-Pro-Ser-Ser-Pro-His-Ser-Tyr-NH2; cysteine pairing not given here
B14: modified calcitonin gene-related peptide antagonist of SEQ ID NO: 15 (peptide)
peptide: ACDTAACVTHRLAGLLSRSGGVVKNNFVPTNVGSKAF-NH2
modifications: not fully specified (bridges); printed as Ala-Cys-Asp-Thr-Ala-Ala-Cys-Val-Thr-His-Arg-Leu-Ala-Gly-Leu-Leu-Ser-Arg-Ser-Gly-Gly-Val-Val-Lys-Asn-Asn-Phe-Val-Pro-Thr-Asn-Val-Gly-Ser-Lys-Ala-Phe-NH2; cysteine pairing not given here
B15: modified calcitonin gene-related peptide antagonist of SEQ ID NO: 9 (peptide)
peptide: H-ACDTALCVLGRLSQELHRLQTYPRTNVGSKAF-NH2
modifications: not fully specified (bridges); printed as NH2-Ala-Cys-Asp-Thr-Ala-Leu-Cys-Val-Leu-Gly-Arg-Leu-Ser-Gln-Glu-Leu-His-Arg-Leu-Gln-Thr-Tyr-Pro-Arg-Thr-Asn-Val-Gly-Ser-Lys-Ala-Phe-NH2; cysteine pairing not given here
B16: modified calcitonin gene-related peptide antagonist of SEQ ID NO: 6 (peptide)
peptide: H-ACRFGACVLGRLSQELHRLQTYPRTNVGSKAF-NH2
modifications: not fully specified (bridges); printed as NH2-Ala-Cys-Arg-Phe-Gly-Ala-Cys-Val-Leu-Gly-Arg-Leu-Ser-Gln-Glu-Leu-His-Arg-Leu-Gln-Thr-Tyr-Pro-Arg-Thr-Asn-Val-Gly-Ser-Lys-Ala-Phe-NH2; cysteine pairing not given here

The target in one experiment is T1, amylin receptor AMY1, a CT (calcitonin) receptor/RAMP1 (receptor-activity modifying protein) complex (UniProt P30988 25-474; O60894 27-148, limits assumed). The experiment in a line: cell-based or functional assay.
T1 sequence (P30988 25-474 limits assumed, chain 1 of 2): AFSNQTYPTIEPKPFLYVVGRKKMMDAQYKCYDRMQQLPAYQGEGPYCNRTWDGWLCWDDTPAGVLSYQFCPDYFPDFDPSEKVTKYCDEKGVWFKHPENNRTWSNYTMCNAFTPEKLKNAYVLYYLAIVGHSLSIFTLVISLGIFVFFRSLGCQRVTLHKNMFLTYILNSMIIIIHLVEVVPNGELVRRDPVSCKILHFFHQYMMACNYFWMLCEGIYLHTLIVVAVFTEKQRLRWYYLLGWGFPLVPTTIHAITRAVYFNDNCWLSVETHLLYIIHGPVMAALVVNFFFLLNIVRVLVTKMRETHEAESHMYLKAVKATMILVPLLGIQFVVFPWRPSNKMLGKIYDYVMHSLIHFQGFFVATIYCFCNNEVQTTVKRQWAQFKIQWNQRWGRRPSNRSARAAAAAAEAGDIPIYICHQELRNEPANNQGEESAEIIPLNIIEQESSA
T1 sequence (O60894 27-148 limits assumed, chain 2 of 2): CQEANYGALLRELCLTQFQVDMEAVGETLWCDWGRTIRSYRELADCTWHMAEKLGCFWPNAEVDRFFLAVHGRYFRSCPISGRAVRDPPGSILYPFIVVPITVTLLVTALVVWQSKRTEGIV
As to B1, the “IC50 nM (calcium flux, assay positive control)” value amounted to 8150 nM.

The next experiment has as its target T1, amylin receptor AMY1, a CT (calcitonin) …. The experiment in a line: cell-based or functional assay. The source holds these as a separate data set.
For the molecule B2, the “IC50 nM (calcium flux, inhibition of stimulation by 32 nM α-CGRP)” value is 12 nM.

For the molecule B3, the “IC50 nM (calcium flux, inhibition of stimulation by 32 nM α-CGRP)” value worked out at 4 nM.

Regarding B4, the “IC50 nM (calcium flux, inhibition of stimulation by 32 nM α-CGRP)” value worked out at 17 nM.

Take B5: the “IC50 nM (calcium flux, inhibition of stimulation by 32 nM α-CGRP)” value amounted to 4 nM.

Turning to B6, the “IC50 nM (calcium flux, inhibition of stimulation by 32 nM α-CGRP)” value was determined as 16 nM.

For the molecule B7, the “IC50 nM (calcium flux, inhibition of stimulation by 32 nM α-CGRP)” value was found to be 75 nM.

With B8, the “IC50 nM (calcium flux, inhibition of stimulation by 32 nM α-CGRP)” value is 8 nM.

Take B9: the “IC50 nM (calcium flux, inhibition of stimulation by 32 nM α-CGRP)” value came out at 5 nM.

As to B10, the “IC50 nM (calcium flux, inhibition of stimulation by 32 nM α-CGRP)” value is 9 nM.

As for B11, the “IC50 nM (calcium flux, inhibition of stimulation by 32 nM α-CGRP)” value amounted to 9 nM.

For the molecule B12, the “IC50 nM (calcium flux, inhibition of stimulation by 32 nM α-CGRP)” value was found to be 9 nM.

B13: the “IC50 nM (calcium flux, inhibition of stimulation by 32 nM α-CGRP)” value was found to be 1020 nM.

Take B14: the “IC50 nM (calcium flux, inhibition of stimulation by 32 nM α-CGRP)” value worked out at 1240 nM.

For the molecule B15, the “IC50 nM (calcium flux, inhibition of stimulation by 32 nM α-CGRP)” value is 9 nM.

As to B16, the “IC50 nM (calcium flux, inhibition of stimulation by 32 nM α-CGRP)” value came to 33 nM.
